# According to US20260008817A1, “CYCLIC PEPTIDE OR SALT THEREOF, AND USES THEREOF” (FUJIFILM Corporation, priority 2023, published 2026):
# Positions of bridges follow the written chain, without caps; N, C: chain ends. No end group written: not given here. COCH2 = acetyl group that carries the bridge
# Target: T1, Recombinant Human FGFR1 alpha (IIIc) Fc Chimera Protein (Homo sapiens, UniProt P11362)
# T1 construct: purchased R&D systems 658-FR-050
# Assay: ELISA binding affinity of enzymatically synthesized peptide to FGFR
# Conditions: ELISA luminescence signal at 10 nmol/L peptide, SEQ ID NO: 239 standardized to 1; enzyme synthesis product
# Method in brief: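 Cell-free PUREfrex-translated cyclic peptides (Myc/HiBiT-tagged, quantified by HiBiT luminescence) bound 3 h at room temperature to immobilized FGFR1α(IIIc)-Fc, detected with anti-Myc and chemiluminescence. FGFR-specific signal at 10 nmol/L normalized to a reference cyclic peptide and graded A–D.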
# T1 sequence (P11362 with tags, fused parts or gaps limits assumed): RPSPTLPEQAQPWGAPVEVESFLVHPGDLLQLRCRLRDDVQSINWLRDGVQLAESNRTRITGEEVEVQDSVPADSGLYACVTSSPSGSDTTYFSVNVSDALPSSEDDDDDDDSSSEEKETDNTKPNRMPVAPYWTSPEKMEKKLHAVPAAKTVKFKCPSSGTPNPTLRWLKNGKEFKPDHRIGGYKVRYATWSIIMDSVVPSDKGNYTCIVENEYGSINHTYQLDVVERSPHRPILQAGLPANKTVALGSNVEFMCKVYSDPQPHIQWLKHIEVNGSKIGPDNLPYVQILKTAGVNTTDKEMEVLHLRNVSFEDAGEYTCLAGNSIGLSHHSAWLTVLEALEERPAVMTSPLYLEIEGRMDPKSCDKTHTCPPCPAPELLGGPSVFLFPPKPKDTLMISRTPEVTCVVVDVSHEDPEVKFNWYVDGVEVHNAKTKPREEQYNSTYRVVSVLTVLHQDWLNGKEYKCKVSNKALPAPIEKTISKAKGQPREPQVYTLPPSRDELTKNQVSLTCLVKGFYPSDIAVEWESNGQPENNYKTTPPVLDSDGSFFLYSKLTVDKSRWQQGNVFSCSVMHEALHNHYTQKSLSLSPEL
row,Substance,Evaluation result of binding affinity to FGFR
1,121 (ICVYTFDAHFHSLHAALTKI; Description of Artificial Sequence: Cyclic peptide) [compound 121],C (0.1 or more and less than 0.5)
2,142 (ICVYTFDAHASSLHAALTK(COCH2)I; thioether 2-19 (inferred)) [compound 142],A (0.7 or more)
3,214 (ICVYTFDAHAHSLHAALAK(COCH2)I; thioether 2-19 (inferred)) [compound 214],C (0.1 or more and less than 0.5)
4,167 (ICVYTFDAHAHSFHAALTK(COCH2)I; thioether 2-19 (inferred)) [compound 167],A (0.7 or more)
5,263 (QCYHIIVYTFVKP; Description of Artificial Sequence: Cyclic peptide) [compound 263],C (0.1 or more and less than 0.5)
6,151 (ICVYTFDAHAHVLHAALTK(COCH2)I; thioether 2-19 (inferred)) [compound 151],C (0.1 or more and less than 0.5)
7,129 (ICVYTFDAHRHSLHAALTKI; Description of Artificial Sequence: Cyclic peptide) [compound 129],C (0.1 or more and less than 0.5)
8,59 (ICYYTFDAHAHSLHAALTK(COCH2)I; thioether 2-19 (inferred)) [compound 59],C (0.1 or more and less than 0.5)
9,"292 (ICVYTFDAHAHSLDAALNKI; not fully specified (residue 19, bridges)) [compound 292]",A (0.7 or more)
10,245 (NCVYYAKPVFAHANRVWTYIK(COCH2)I; thioether 2-21 (inferred)) [compound 245],A (0.7 or more)
11,298 (ICVYTFDAHAHSLHDALTK(COCH2)V; thioether 2-19 (inferred)) [compound 298],A (0.7 or more)
12,234 (ICVYTFDAHAHSLHAALTK(COCH2)T; thioether 2-19 (inferred)) [compound 234],C (0.1 or more and less than 0.5)
13,69 (ICVYQFDAHAHSLHAALTK(COCH2)I; thioether 2-19 (inferred)) [compound 69],B (0.5 or more and less than 0.7)
14,104 (ICVYTFDAGAHSLHAALTKI; Description of Artificial Sequence: Cyclic peptide) [compound 104],A (0.7 or more)
15,177 (ICVYTFDAHAHSLGAALTK(COCH2)I; thioether 2-19 (inferred)) [compound 177],A (0.7 or more)
16,187 (ICVYTFDAHAHSLSAALTK(COCH2)I; thioether 2-19 (inferred)) [compound 187],A (0.7 or more)
17,226 (ICVYTFDAHAHSLHAALTK(COCH2)L; thioether 2-19 (inferred)) [compound 226],C (0.1 or more and less than 0.5)
18,256 (DCVYQYDRNAHYWDTALVK(COCH2)V; thioether 2-19 (inferred)) [compound 256],A (0.7 or more)
19,35 (CDRTLLYYRLSC; disulfide 1-12 (inferred)) [compound 35],D (less than 0.1)
20,115 (ICVYTFDADAHSLHAALTKI; Description of Artificial Sequence: Cyclic peptide) [compound 115],A (0.7 or more)
21,264 (VCIFTWDRVHWPVKV; Description of Artificial Sequence: Cyclic peptide) [compound 264],C (0.1 or more and less than 0.5)
22,176 (ICVYTFDAHAHSLAAALTK(COCH2)I; thioether 2-19 (inferred)) [compound 176],A (0.7 or more)
23,193 (ICVYTFDAHAHSLHLALTK(COCH2)I; thioether 2-19 (inferred)) [compound 193],C (0.1 or more and less than 0.5)
24,218 (ICVYTFDAHAHSLHAALFK(COCH2)I; thioether 2-19 (inferred)) [compound 218],C (0.1 or more and less than 0.5)
25,280 (PCPVWGDYGAVHQYGWK(COCH2)V; thioether 2-17 (inferred)) [compound 280],A (0.7 or more)
26,65 (ICVYGFDAHAHSLHAALTK(COCH2)I; thioether 2-19 (inferred)) [compound 65],C (0.1 or more and less than 0.5)
27,221 (ICVYTFDAHAHSLHAALSK(COCH2)I; thioether 2-19 (inferred)) [compound 221],C (0.1 or more and less than 0.5)
28,215 (ICVYTFDAHAHSLHAALGK(COCH2)I; thioether 2-19 (inferred)) [compound 215],C (0.1 or more and less than 0.5)

row,Substance,Evaluation result of binding affinity to FGFR
1,113 (ICVYTFDASAHSLHAALTKI; Description of Artificial Sequence: Cyclic peptide) [compound 113],A (0.7 or more)
2,143 (ICVYTFDAHATSLHAALTK(COCH2)I; thioether 2-19 (inferred)) [compound 143],A (0.7 or more)
3,324 (ICVYTFDANAHSLHDALTK(COCH2)I; thioether 2-19 (inferred)) [compound 324],A (0.7 or more)
4,237 (VCIYTFNHLAQTYWQSLNK(COCH2)V; thioether 2-19 (inferred)) [compound 237],A (0.7 or more)
5,117 (ICVYTFDARAHSLHAALTKI; Description of Artificial Sequence: Cyclic peptide) [compound 117],A (0.7 or more)
6,158 (ICVYTFDAHAHDLHAALTK(COCH2)I; thioether 2-19 (inferred)) [compound 158],A (0.7 or more)
7,102 (ICVYTFDHHAHSLHAALTKI; Description of Artificial Sequence: Cyclic peptide) [compound 102],B (0.5 or more and less than 0.7)
8,71 (ICVYEFDAHAHSLHAALTK(COCH2)I; thioether 2-19 (inferred)) [compound 71],C (0.1 or more and less than 0.5)
9,53 (RCVYTFDAHAHSLHAALTK(COCH2)I; thioether 2-19 (inferred)) [compound 53],A (0.7 or more)
10,272 (QCDWVIWQWDPPYIKV; Description of Artificial Sequence: Cyclic peptide) [compound 272],C (0.1 or more and less than 0.5)
11,282 (FCIYSWNWNNLVRPEFRK(COCH2)V; thioether 2-18 (inferred)) [compound 282],C (0.1 or more and less than 0.5)
12,192 (ICVYTFDAHAHSLHGALTK(COCH2)I; thioether 2-19 (inferred)) [compound 192],A (0.7 or more)
13,312 (ICVYTFDAHAQSLDDALTK(COCH2)I; thioether 2-19 (inferred)) [compound 312],A (0.7 or more)
14,294 (ICVYTFDAHAHSLDAALTK(COCH2)Q; thioether 2-19 (inferred)) [compound 294],A (0.7 or more)
15,224 (ICVYTFDAHAHSLHAALHK(COCH2)I; thioether 2-19 (inferred)) [compound 224],A (0.7 or more)
16,92 (ICVYTFDIHAHSLHAALTK(COCH2)I; thioether 2-19 (inferred)) [compound 92],C (0.1 or more and less than 0.5)
17,257 (FCAWVVDYQELHQFWSIVQK(COCH2)I; thioether 2-20 (inferred)) [compound 257],C (0.1 or more and less than 0.5)
18,271 (LCQLGVYTYVALFYKF; Description of Artificial Sequence: Cyclic peptide) [compound 271],C (0.1 or more and less than 0.5)
19,47 (NCVYTFDAHAHSLHAALTK(COCH2)I; thioether 2-19 (inferred)) [compound 47],A (0.7 or more)
20,62 (ICVWTFDAHAHSLHAALTK(COCH2)I; thioether 2-19 (inferred)) [compound 62],C (0.1 or more and less than 0.5)
21,95 (ICVYTFDWHAHSLHAALTK(COCH2)I; thioether 2-19 (inferred)) [compound 95],C (0.1 or more and less than 0.5)
22,243 (QCYLPSWFYQKARLLFQYIK(COCH2)S; thioether 2-20 (inferred)) [compound 243],C (0.1 or more and less than 0.5)
23,48 (QCVYTFDAHAHSLHAALTK(COCH2)I; thioether 2-19 (inferred)) [compound 48],A (0.7 or more)
24,171 (ICVYTFDAHAHSSHAALTK(COCH2)I; thioether 2-19 (inferred)) [compound 171],B (0.5 or more and less than 0.7)
25,188 (ICVYTFDAHAHSLTAALTK(COCH2)I; thioether 2-19 (inferred)) [compound 188],A (0.7 or more)
26,174 (ICVYTFDAHAHSRHAALTK(COCH2)I; thioether 2-19 (inferred)) [compound 174],C (0.1 or more and less than 0.5)
27,274 (FCIYTFSRESGLLWKQ; Description of Artificial Sequence: Cyclic peptide) [compound 274],A (0.7 or more)
